From patent EP4039268A1 (IMBA-Institut für Molekulare Biotechnologie GmbH, dated 2022)

B1: Lgals4_1 CRD-mouse IgG2a-Fc fusion protein (Fc fusion)
chain: YKRPIPGGLSVGMSVYIQGMAKENMRRFHVNFAVGQDDGADVAFHFNPRFDGWDKVVFNTMQSGQWGKEEKKKSMPFQKGKHFELVFMVMPEHYKVVVNGNSFYEYGHRLPVQMVTHLQVDGDLELQSINFLGGGSGGGSGGGS
B2: Clec4e CRD-mouse IgG2a-Fc fusion protein (Fc fusion)
chain: YQSSCYFFSTTTLTWSSSLKNCSDMGAHLVVIDTQEEQEFLFRTKPKRKEFYIGLTDQVVEGQWQWVDDTPFTESLSFWDAGEPNNIVLVEDCATIRDSSNSRKNWNDIPCFYSMPWICEGGGSGGGSGGGS
B3: Chodl CRD-mouse IgG2a-Fc fusion protein (Fc fusion)
chain: VKHPCYKMAYFHELSSRVSFQEARLACESEGGVLLSLENEAEQKLIESMLQNLTKPGTGISDGDFWIGLLRSGDGQTSGACPDLYQWSDGSSSQFRNWYTDEPSCGSEKCVVMYHQPTANPGLGGPYLYQWNDDRCNMKHNYICKGGGSGGGSGGGS
B4: Colec10 CRD-mouse IgG2a-Fc fusion protein (Fc fusion)
chain: TEEKFYYIVQEEKNYRESLTHCRIRGGMLAMPKDEVVNTLIADYVAKSGFFRVFIGVNDLEREGQYVFTDNTPLQNYSNWKEEEPSDPSGHEDCVEMLSSGRWNDTECHLTMYFVCEGGGSGGGSGGGS
B5: Klrd1 CRD-mouse IgG2a-Fc fusion protein (Fc fusion)
chain: HQCNCYFISKEEKSWKRSRDFCASQNSSLLQPQSRNELSFMNFSQTFFWIGMHYSEKRNAWLWEDGTVPSKDLFPEFSVIRPEHCIVYSPSKSVSAESCENKNRYICKGGGSGGGSGGGS
B6: Dgcr2 CRD-mouse IgG2a-Fc fusion protein (Fc fusion)
chain: CPSGWHHYEGTASCYRVYLSGENYWDAAQTCQRVNGSLATFSTDQELRFVLAQEWDQPERSFGWKDQRKLWVGYQYVITGRNHSLEGRWEVAFKGSPEVFLPPDPIFASAMSENDNVFCAQLQCFHFGGGSGGGSGGGS
B7: Clec2d CRD-mouse IgG2a-Fc fusion protein (Fc fusion)
chain: VENKCFYFSEYPSNWTFAQAFCMAQEAQLARFDNQDELNFLMRYKANFDSWIGLHRESSEHPWKWTDNTEYNNTIPIRGEERFAYLNNNGISSTRIYSLRMWICSKLNSYSLHCQTGGGSGGGSGGGS
B8: Klrb1a CRD-mouse IgG2a-Fc fusion protein (Fc fusion)
chain: ECPQDWLSHRDKCFHVSHVSNTWEEGLVDCDGKGATLMLIQDQEELRFLLDSIKEKYNSFWIGLRYTLPDMNWKWINGSTLNSDVLKITDDTENDSCAAISGDKVTFESCNSDNRWICQKGGGSGGGSGGGS
B9: Colec11 CRD-mouse IgG2a-Fc fusion protein (Fc fusion)
chain: TESKIYLLVKEEKRYADAQLSCQARGGTLSMPKDEAANGLMASYLAQAGLARVFIGINDLEKEGAFVYSDRSPMQTFNKWRSGEPNNAYDEEDCVEMVASGGWNDVACHITMYFMCEGGGSGGGSGGGS
B10: Atrn CRD-mouse IgG2a-Fc fusion protein (Fc fusion)
chain: VGNSCLKITTAKENYDNAKLSCRNHNAFLASLTSQKKVEFVLKQLRLMQSSQSMSKLTLTPWVGLRKINVSYWCWEDMSPFTNSLLQWMPSEPSDAGFCGILSEPSTRGLKAATCINPLNGSVCEGGGSGGGSGGGS
B11: Clec3a CRD-mouse IgG2a-Fc fusion protein (Fc fusion)
chain: VHKKCYLASEGLKHYHEANEDCISKGGTLVVPRNSDEINALRDYGKRSLPGVNDFWLGINDMVTEGKFLDVHGFAVSFLNWDRAQPSGGKRENCVLFSQSAQGKWSDEACRSSKRYICEGGGSGGGSGGGS
B12: Clec3b CRD-mouse IgG2a-Fc fusion protein (Fc fusion)
chain: VNLKCLLAFTQPKTFHEASEDCISQGGTLGTPQSELENEALFEYARHSVGNDANIWLGLNDMAAEGAWVDMTGGLLAYKNWETEITTQPDGGKAENCAALSGAANGKWFDKRCRDQLPYICQGGGSGGGSGGGS
B13: Clec18a CRD-mouse IgG2a-Fc fusion protein (Fc fusion)
chain: IDGDCFMVSPEADTYYGAKMKCQGKGGVLAQIESQKVQDILAFYLGRLETTNEVTDSDFETKNFWIGLTYKAAKDSFRWTTGEHQSFTSFAFGQPDNQGFGNCVEMQASAAFNWNDQRCKTRNRYICQGGGSGGGSGGGS
B14: Grifin CRD-mouse IgG2a-Fc fusion protein (Fc fusion)
chain: FEAFCAGGLAPGWSLTVQGHADAGEEKFEINFLTDAGDIAFHVKPRFSSATVVGNAFQGGRWGQEEVSSIFPLTLGEPFEMEVSADAEHFHIYAQEQKVLQFPHRHRPLATITRVRVLSEHRLAQVELAGGGSGGGSGGGS
B15: Frem1 CRD-mouse IgG2a-Fc fusion protein (Fc fusion)
chain: HSGYCHILVTRQKGTWTTATRACREQHQGDLVTVLSRRHMQWLWAMSGRKPFWIGLKNQPRTGHWEWIGGEPVAFTNWRRGAPLHPKPGKNCALVQKRGQWQTKNCSKGKAHNFVGGGSGGGSGGGS
B16: Clec9a CRD-mouse IgG2a-Fc fusion protein (Fc fusion)
chain: NGKSCYYVFERWEMWNISKKSCLKEGASLFQIDSKEEMEFISSIGKLKGGNKYWVGVFQDGISGSWFWEDGSSPLSDLLPAERQRSAGQICGYLKDSTLISDKCDSWKYFICEGGGSGGGSGGGS
B17: Acan CRD-mouse IgG2a-Fc fusion protein (Fc fusion)
chain: not shown
B18: Klrb1 CRD-mouse IgG2a-Fc fusion protein (Fc fusion)
chain: HCDKCLFTSQTSRPWADGLVDCNLKGATLLLIQDEEELRLLQNFSKGKGQQFYIGLKYEEVDKVWKWMNGSILNTNLLQITGKDEENSCALISQTEVFSDSCSSDNHWICQGGGSGGGSGGGS
B19: Klri2 CRD-mouse IgG2a-Fc fusion protein (Fc fusion)
chain: FGNNFYCVFRENSKTWVESQSACEELNSHLVIIDSKAEVENLLLFEMDGWILHRMDGTNSSRLWGNDIKIRNTLMNDSEKKNHSCHYLRGNIFMPDECSAKKTYICEGGGSGGGSGGGS
B20: Asgr1 CRD-mouse IgG2a-Fc fusion protein (Fc fusion)
chain: YEGSCYWFSSSVRPWTEADKYCQLENAHLVVVTSRDEQNFLQRHMGPLNTWIGLTDQNGPWKWVDGTDYETGFQNWRPEQPDNWYGHGLGGGEDCAHFTTDGRWNDDVCRRPYRWVCEGGGSGGGSGGGS
B21: Cd207 CRD-mouse IgG2a-Fc fusion protein (Fc fusion)
chain: FSGNFYYFSRTPKTWYSAEQFCISRKAHLTSVSSESEQKFLYKAADGIPHWIGLTKAGSEGDWYWVDQTSFNKEQSRRFWIPGEPNNAGNNEHCANIRVSALKCWNDGPCDNTFLFICKGGGSGGGSGGGS
B22: Clec1a CRD-mouse IgG2a-Fc fusion protein (Fc fusion)
chain: YGDKCYQFYKESKNWQSCEYFCLADNATMLKISTQEELDFAMPQSYSEFFYSYWTGLSRNGSGKAWLWTDGTPYSFELFEIIIDPTNLRNRDCMTIFNGKAYSKDCKELRRCACEGGGSGGGSGGGS
B23: Clec2l CRD-mouse IgG2a-Fc fusion protein (Fc fusion)
chain: YGRKCYYFSEEPRDWNTGRQYCHTHEAALAVIQSQKELEFMFKFTRREPWIGLRRVGDDFHWVNGDPFDPDTFTISGMGECVFVEPTRLVSTECLTTRPWVCSGGGSGGGSGGGS
B24: Olr1 CRD-mouse IgG2a-Fc fusion protein (Fc fusion)
chain: HKENCYLFHGPFSWEKNRQTCQSLGGQLLQINGADDLTFILQAISHTTSPFWIGLHRKKPGQPWLWENGTPLNFQFFKTRGVSLQLYSSGNCAYLQDGAVFAENCILIAFSICQGGGSGGGSGGGS

Tests used:
[1] = biological target: T1, full-length trimeric SARS-CoV-2 Spike protein (Spike-H6) (SARS-CoV-2, N-glycosylated (22 N-glycosylation sites)); assay: ELISA screen
T1 construct: also called trimeric Spike; full-length Spike-H6

[2] = biological target: T2, human recombinant soluble ACE2 (human, UniProt Q9BYF1 18-740); assay: ELISA screen
T2 construct: also called hrsACE2

[3] = biological target: T2, human recombinant soluble ACE2; assay: ELISA
[4] = biological target: T3, monomeric SARS-CoV-2 receptor binding domain (RBD-H6) (SARS-CoV-2, UniProt P0DTC2 319-541); assay: ELISA screen
T3 construct: Made in HEK293-6E cells; also called RBD Spike; monomeric RBD

Row | Binder | Mean normalized OD [1] [OD] | Mean normalized OD [2] [OD] | binding result [3] | Mean normalized OD [4] [OD]
1 | B1 | 0.152 | 0.2 | no binding (tested: 10 µg/ml) | 
2 | B2 | 0.037 | 0.222 | no binding (tested: 10 µg/ml) | 0.022
3 | B3 | 0.002 | -0.001 |  | 0.001
4 | B4 | 0.036 | 0.185 | no binding (tested: 10 µg/ml) | 0.008
5 | B5 | 0.003 | 0.006 | no binding (tested: 10 µg/ml) | 0.004
6 | B6 | 0.005 | 0.012 | no binding (tested: 10 µg/ml) | 0.003
7 | B7 | -0.106 | -0.506 |  | 0.024
8 | B8 | 0 | 0 | no binding (tested: 10 µg/ml) | 0.002
9 | B9 | 0.043 | 0.153 | no binding (tested: 10 µg/ml) | 0.013
10 | B10 | 0.002 | 0.002 | no binding (tested: 10 µg/ml) | 0.001
11 | B11 | 0.098 | 0.045 | no binding (tested: 10 µg/ml) | 0.039
12 | B12 | 0.001 | 0.001 | no binding (tested: 10 µg/ml) | 0
13 | B13 | 0.022 | -0.013 |  | 0
14 | B14 | 0.004 | 0.035 | no binding (tested: 10 µg/ml) | 0
15 | B15 | 0.03 | 0.028 | no binding (tested: 10 µg/ml) | 0.013
16 | B16 | 0.029 | 0.222 | no binding (tested: 10 µg/ml) | 0.062
17 | B17 | 0.023 | 0.081 | no binding (tested: 10 µg/ml) | 0.035
18 | B18 | 0.002 | 0.012 | no binding (tested: 10 µg/ml) | 0.005
19 | B19 | 0.006 | 0.005 | no binding (tested: 10 µg/ml) | 0.001
20 | B20 | 0.121 | 0.004 | no binding (tested: 10 µg/ml) | 
21 | B21 | 0.028 | 0.123 | no binding (tested: 10 µg/ml) | 0.118
22 | B22 | -0.005 | -0.006 |  | 0.01
23 | B23 | -0.001 | 0 | no binding (tested: 10 µg/ml) | 0
24 | B24 | 0.083 | 0.116 | no binding (tested: 10 µg/ml) | 
